For seven molecules, relative binding activity results are on record in patent US20230257470A1 (published 2023).

Assay in all cases: SPR (Biacore), FcγR over captured antibody; binding amount divided by that of IL6R-BF648/IL6R-L x 100
A general note: In SPR one partner is held on a chip, and binding of the other changes the refractive index at the surface.

One assay has as its target T1, human FcγRIa (human, UniProt P12314 16-292, limits assumed).
T1 construct: also called FcgRIa; FcγRI (CD64)

Another assay concerns the target T2, human FcγRIIa type R (human, UniProt P12318 36-217).
T2 construct: also called FcgRIIaR; FcγRIIa(R)
T2 chain: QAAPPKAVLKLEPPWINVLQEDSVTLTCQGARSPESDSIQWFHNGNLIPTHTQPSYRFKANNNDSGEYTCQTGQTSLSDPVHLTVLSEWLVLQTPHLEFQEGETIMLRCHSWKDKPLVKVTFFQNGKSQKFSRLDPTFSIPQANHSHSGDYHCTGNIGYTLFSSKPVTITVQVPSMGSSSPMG

The target of the next assay is T3, human FcγRIIa type H (human, UniProt P12318 36-217).
T3 construct: also called FcgRIIaH; FcγRIIa(H)
T3 sequence: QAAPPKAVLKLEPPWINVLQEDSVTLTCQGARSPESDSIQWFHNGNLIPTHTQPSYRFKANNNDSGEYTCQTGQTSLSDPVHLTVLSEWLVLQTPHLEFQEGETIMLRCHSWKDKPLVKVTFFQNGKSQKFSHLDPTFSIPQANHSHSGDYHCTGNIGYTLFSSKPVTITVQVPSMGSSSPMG

The target in the next assay is T4, human FcγRIIb (human, UniProt P31994 43-217, limits assumed).
T4 construct: also called FcgRIIb; FcγIIB
T4 sequence: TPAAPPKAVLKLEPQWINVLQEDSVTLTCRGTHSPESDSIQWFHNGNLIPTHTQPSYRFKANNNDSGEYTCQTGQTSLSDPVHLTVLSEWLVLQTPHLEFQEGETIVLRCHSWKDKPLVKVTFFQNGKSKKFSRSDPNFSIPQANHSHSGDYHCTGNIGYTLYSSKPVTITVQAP

The target in another assay is T5, human FcγRIIIa type V (human, UniProt P08637 17-208, limits assumed).
T5 construct: also called FcgRIIIaV; FcγRIIIa(V)
T5 sequence (P08637 other isoform, or with tags, fused parts or gaps limits assumed): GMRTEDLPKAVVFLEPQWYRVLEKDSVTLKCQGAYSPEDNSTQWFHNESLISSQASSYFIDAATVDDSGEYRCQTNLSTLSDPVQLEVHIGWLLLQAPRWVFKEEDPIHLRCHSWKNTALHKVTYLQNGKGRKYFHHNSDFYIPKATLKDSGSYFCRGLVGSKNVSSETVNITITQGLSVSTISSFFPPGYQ

T1 sequence (P12314 16-292 limits assumed): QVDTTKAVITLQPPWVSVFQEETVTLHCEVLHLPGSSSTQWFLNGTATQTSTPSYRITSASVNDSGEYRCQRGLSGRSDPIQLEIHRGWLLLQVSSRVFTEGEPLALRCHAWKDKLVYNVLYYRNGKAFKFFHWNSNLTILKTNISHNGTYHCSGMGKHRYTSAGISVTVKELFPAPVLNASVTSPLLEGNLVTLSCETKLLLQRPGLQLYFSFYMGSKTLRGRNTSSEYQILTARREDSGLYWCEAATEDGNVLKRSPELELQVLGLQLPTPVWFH
Procedure for human FcγRIIIa type V: (§1) According to the following method, relative binding activities were calculated for the results of analyzing interactions with the respective FcγRs.
Procedure for human FcγRIIa type H: as §1
Procedure for human FcγRIIa type R: as §1
Procedure for human FcγRIIb: as §1
Procedure for human FcγRIa: as §1

B1: IL6R-BP088/IL6R-L (antibody, human IgG1, name in EU numbering)
heavy: QVQLQESGPGLVKPSETLSLTCAVSGHSISHDHAWSWVRQPPGEGLEWIGFISYSGITNYNPSLQGRVTISRDNSKNTLYLQMNSLRAEDTAVYYCARSLARTTAMDYWGEGTLVTVSSASTKGPSVFPLAPSSKSTSGGTAALGCLVKDYFPEPVTVSWNSGALTSGVHTFPAVLQSSGLYSLSSVVTVPSSSLGTQTYICNVNHKPSNTKVDKKVEPKSCDKTHTCPPCPAPELLGDDSVFLFPPKPKDTLMISRTPEVTCVVVDVSHEDPEVKFNWYVDGVEVHNAKTKPREEQYNSTYRVVSVLTVLHQDWLNGKEYKCKVSNAALPKPIEKTISKAKGQPREPQVYTLPPSRDELTKNQVSLTCLVKGFYPSDIAVEWESNGQPENNYKTTPPVLDSDGSFFLYSKLTVDKSRWQQGNVFSCSVMHEALHNHYTQESLSLSP
light: DIQMTQSPSSLSASVGDRVTITCRASQDISSYLNWYQQKPGKAPKLLIYYTSRLHSGVPSRFSGSGSGTDFTFTISSLQPEDIATYYCQQGNTLPYTFGQGTKVEIK
notes: copies: 2 + 2
For the molecule B1, the relative binding activity in the assay with human FcγRIa was 25 relative (IL6R-BF648/IL6R-L = 100); with human FcγRIIa type R, 377 relative (IL6R-BF648/IL6R-L = 100); with human FcγRIIa type H it was 166 relative (IL6R-BF648/IL6R-L = 100); with human FcγRIIb it was 161 relative (IL6R-BF648/IL6R-L = 100); with human FcγRIIIa type V, 122 relative (IL6R-BF648/IL6R-L = 100).

B2: IL6R-BP129/IL6R-L (antibody, human IgG1, name in EU numbering)
heavy: QVQLQESGPGLVKPSETLSLTCAVSGHSISHDHAWSWVRQPPGEGLEWIGFISYSGITNYNPSLQGRVTISRDNSKNTLYLQMNSLRAEDTAVYYCARSLARTTAMDYWGEGTLVTVSSASTKGPSVFPLAPSSKSTSGGTAALGCLVKDYFPEPVTVSWNSGALTSGVHTFPAVLQSSGLYSLSSVVTVPSSSLGTQTYICNVNHKPSNTKVDKKVEPKSCDKTHTCPPCPAPDLLGGDSVFLFPPKPKDTLMISRTPEVTCVVVDVSHEDPEVKFNWYVDGVEVHNAKTKPREEQDNSTYRVVSVLTVLHQDWLNGKEYKCKVSNKALPKPIEKTISKAKGQPREPQVYTLPPSRDELTKNQVSLTCLVKGFYPSDIAVEWESNGQPENNYKTTPPVLDSDGSFFLYSKLTVDKSRWQQGNVFSCSVMHEALHNHYTQESLSLSP
light: DIQMTQSPSSLSASVGDRVTITCRASQDISSYLNWYQQKPGKAPKLLIYYTSRLHSGVPSRFSGSGSGTDFTFTISSLQPEDIATYYCQQGNTLPYTFGQGTKVEIK
notes: copies: 2 + 2
Take B2: the relative binding activity was 68 relative (IL6R-BF648/IL6R-L = 100) in the assay with human FcγRIa; 111 relative (IL6R-BF648/IL6R-L = 100) with human FcγRIIa type R; 98 relative (IL6R-BF648/IL6R-L = 100) with human FcγRIIa type H; 138 relative (IL6R-BF648/IL6R-L = 100) in the assay with human FcγRIIb; 95 relative (IL6R-BF648/IL6R-L = 100) with human FcγRIIIa type V.

B3: IL6R-BP133/IL6R-L (antibody, human IgG1, name in EU numbering)
heavy: QVQLQESGPGLVKPSETLSLTCAVSGHSISHDHAWSWVRQPPGEGLEWIGFISYSGITNYNPSLQGRVTISRDNSKNTLYLQMNSLRAEDTAVYYCARSLARTTAMDYWGEGTLVTVSSASTKGPSVFPLAPSSKSTSGGTAALGCLVKDYFPEPVTVSWNSGALTSGVHTFPAVLQSSGLYSLSSVVTVPSSSLGTQTYICNVNHKPSNTKVDKKVEPKSCDKTHTCPPCPAPDYLGGDSVFLFPPKPKDTLMISRTPEVTCVVVDVSHEDPEVKFNWYVDGVEVHNAKTKPREEQYNSTYRVVSVLTVLHQDWLNGKEYKCKVSNKALPKPIEKTISKAKGQPREPQVYTLPPSRDELTKNQVSLTCLVKGFYPSDIAVEWESNGQPENNYKTTPPVLDSDGSFFLYSKLTVDKSRWQQGNVFSCSVMHEALHNHYTQESLSLSP
light: DIQMTQSPSSLSASVGDRVTITCRASQDISSYLNWYQQKPGKAPKLLIYYTSRLHSGVPSRFSGSGSGTDFTFTISSLQPEDIATYYCQQGNTLPYTFGQGTKVEIK
notes: copies: 2 + 2
B3: the relative binding activity in the assay with human FcγRIa was 41 relative (IL6R-BF648/IL6R-L = 100); with human FcγRIIa type R it was 174 relative (IL6R-BF648/IL6R-L = 100); in the assay with human FcγRIIa type H, 151 relative (IL6R-BF648/IL6R-L = 100); with human FcγRIIb, 137 relative (IL6R-BF648/IL6R-L = 100); with human FcγRIIIa type V it was 114 relative (IL6R-BF648/IL6R-L = 100).

B4: IL6R-BP145/IL6R-L (antibody, human IgG1, name in EU numbering)
heavy: QVQLQESGPGLVKPSETLSLTCAVSGHSISHDHAWSWVRQPPGEGLEWIGFISYSGITNYNPSLQGRVTISRDNSKNTLYLQMNSLRAEDTAVYYCARSLARTTAMDYWGEGTLVTVSSASTKGPSVFPLAPSSKSTSGGTAALGCLVKDYFPEPVTVSWNSGALTSGVHTFPAVLQSSGLYSLSSVVTVPSSSLGTQTYICNVNHKPSNTKVDKKVEPKSCDKTHTCPPCPAPEYLGDDSVFLFPPKPKDTLMISRTPEVTCVVVDVSHEDPEVKFNWYVDGVEVHNAKTKPREEQYNSTYRVVSVLTVLHQDWLNGKEYKCKVSNKALPAPIEKTISKAKGQPREPQVYTLPPSRDELTKNQVSLTCLVKGFYPSDIAVEWESNGQPENNYKTTPPVLDSDGSFFLYSKLTVDKSRWQQGNVFSCSVMHEALHNHYTQESLSLSP
light: DIQMTQSPSSLSASVGDRVTITCRASQDISSYLNWYQQKPGKAPKLLIYYTSRLHSGVPSRFSGSGSGTDFTFTISSLQPEDIATYYCQQGNTLPYTFGQGTKVEIK
notes: copies: 2 + 2
Turning to B4, the relative binding activity in the assay with human FcγRIa is 41 relative (IL6R-BF648/IL6R-L = 100); with human FcγRIIa type R, 350 relative (IL6R-BF648/IL6R-L = 100); with human FcγRIIa type H, 224 relative (IL6R-BF648/IL6R-L = 100); in the assay with human FcγRIIb it was 152 relative (IL6R-BF648/IL6R-L = 100); in the assay with human FcγRIIIa type V it was 153 relative (IL6R-BF648/IL6R-L = 100).

B5: IL6R-BP144/IL6R-L (antibody, human IgG1, name in EU numbering)
heavy: QVQLQESGPGLVKPSETLSLTCAVSGHSISHDHAWSWVRQPPGEGLEWIGFISYSGITNYNPSLQGRVTISRDNSKNTLYLQMNSLRAEDTAVYYCARSLARTTAMDYWGEGTLVTVSSASTKGPSVFPLAPSSKSTSGGTAALGCLVKDYFPEPVTVSWNSGALTSGVHTFPAVLQSSGLYSLSSVVTVPSSSLGTQTYICNVNHKPSNTKVDKKVEPKSCDKTHTCPPCPAPELLGDDSVFLFPPKPKDTLMISRTPEVTCVVVDVSHEDPEVKFNWYVDGVEVHNAKTKPREEQYNSTYRVVSVLTVLHQDWLNGKEYKCKVSNAALPAPIEKTISKAKGQPREPQVYTLPPSRDELTKNQVSLTCLVKGFYPSDIAVEWESNGQPENNYKTTPPVLDSDGSFFLYSKLTVDKSRWQQGNVFSCSVMHEALHNHYTQESLSLSP
light: DIQMTQSPSSLSASVGDRVTITCRASQDISSYLNWYQQKPGKAPKLLIYYTSRLHSGVPSRFSGSGSGTDFTFTISSLQPEDIATYYCQQGNTLPYTFGQGTKVEIK
notes: copies: 2 + 2
Turning to B5, the relative binding activity was 64 relative (IL6R-BF648/IL6R-L = 100) in the assay with human FcγRIa; 204 relative (IL6R-BF648/IL6R-L = 100) with human FcγRIIa type R; 108 relative (IL6R-BF648/IL6R-L = 100) with human FcγRIIa type H; 121 relative (IL6R-BF648/IL6R-L = 100) in the assay with human FcγRIIb; 128 relative (IL6R-BF648/IL6R-L = 100) in the assay with human FcγRIIIa type V.

B6: IL6R-BP089/IL6R-L (antibody, human IgG1, name in EU numbering)
heavy: QVQLQESGPGLVKPSETLSLTCAVSGHSISHDHAWSWVRQPPGEGLEWIGFISYSGITNYNPSLQGRVTISRDNSKNTLYLQMNSLRAEDTAVYYCARSLARTTAMDYWGEGTLVTVSSASTKGPSVFPLAPSSKSTSGGTAALGCLVKDYFPEPVTVSWNSGALTSGVHTFPAVLQSSGLYSLSSVVTVPSSSLGTQTYICNVNHKPSNTKVDKKVEPKSCDKTHTCPPCPAPEYLGGDSVFLFPPKPKDTLMISRTPEVTCVVVDVSHEDPEVKFNWYVDGVEVHNAKTKPREEQYNSTYRVVSVLTVLHQDWLNGKEYKCKVSNAALPKPIEKTISKAKGQPREPQVYTLPPSRDELTKNQVSLTCLVKGFYPSDIAVEWESNGQPENNYKTTPPVLDSDGSFFLYSKLTVDKSRWQQGNVFSCSVMHEALHNHYTQESLSLSP
light: DIQMTQSPSSLSASVGDRVTITCRASQDISSYLNWYQQKPGKAPKLLIYYTSRLHSGVPSRFSGSGSGTDFTFTISSLQPEDIATYYCQQGNTLPYTFGQGTKVEIK
notes: copies: 2 + 2
In the case of B6, the relative binding activity with human FcγRIa is 43 relative (IL6R-BF648/IL6R-L = 100); in the assay with human FcγRIIa type R, 222 relative (IL6R-BF648/IL6R-L = 100); in the assay with human FcγRIIa type H it was 186 relative (IL6R-BF648/IL6R-L = 100); with human FcγRIIb, 147 relative (IL6R-BF648/IL6R-L = 100); in the assay with human FcγRIIIa type V, 136 relative (IL6R-BF648/IL6R-L = 100).

B7: IL6R-BP143/IL6R-L (antibody, human IgG1, name in EU numbering)
heavy: QVQLQESGPGLVKPSETLSLTCAVSGHSISHDHAWSWVRQPPGEGLEWIGFISYSGITNYNPSLQGRVTISRDNSKNTLYLQMNSLRAEDTAVYYCARSLARTTAMDYWGEGTLVTVSSASTKGPSVFPLAPSSKSTSGGTAALGCLVKDYFPEPVTVSWNSGALTSGVHTFPAVLQSSGLYSLSSVVTVPSSSLGTQTYICNVNHKPSNTKVDKKVEPKSCDKTHTCPPCPAPEYLGGDSVFLFPPKPKDTLMISRTPEVTCVVVDVSHEDPEVKFNWYVDGVEVHNAKTKPREEQYNSTYRVVSVLTVLHQDWLNGKEYKCKVSNAALPAPIEKTISKAKGQPREPQVYTLPPSRDELTKNQVSLTCLVKGFYPSDIAVEWESNGQPENNYKTTPPVLDSDGSFFLYSKLTVDKSRWQQGNVFSCSVMHEALHNHYTQESLSLSP
light: DIQMTQSPSSLSASVGDRVTITCRASQDISSYLNWYQQKPGKAPKLLIYYTSRLHSGVPSRFSGSGSGTDFTFTISSLQPEDIATYYCQQGNTLPYTFGQGTKVEIK
notes: copies: 2 + 2
With B7, the relative binding activity with human FcγRIa is 86 relative (IL6R-BF648/IL6R-L = 100); with human FcγRIIa type R it was 238 relative (IL6R-BF648/IL6R-L = 100); with human FcγRIIa type H, 143 relative (IL6R-BF648/IL6R-L = 100); in the assay with human FcγRIIb, 133 relative (IL6R-BF648/IL6R-L = 100); in the assay with human FcγRIIIa type V, 114 relative (IL6R-BF648/IL6R-L = 100).
